This assay deals with biotinylated AP-neuroligin-1 on rat hippocampal neurons (mouse) (UniProt Q99K10). In words: cell-based or functional assay.

From patent US20070105162A1, “Monovalent avidin and streptavidin compositions” (Massachusetts Institute of Technology, priority 2005, published 2007) come the findings set out here.

Chain of monovalent streptavidin A1D3 conjugated to Alexa Fluor 568 (designed binder) (chain): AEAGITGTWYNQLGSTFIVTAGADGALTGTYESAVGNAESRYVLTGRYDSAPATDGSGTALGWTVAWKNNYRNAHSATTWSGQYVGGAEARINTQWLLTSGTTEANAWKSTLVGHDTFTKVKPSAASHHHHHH
Chain of monovalent streptavidin A1D3 conjugated to Alexa Fluor 568 (designed binder) (chain): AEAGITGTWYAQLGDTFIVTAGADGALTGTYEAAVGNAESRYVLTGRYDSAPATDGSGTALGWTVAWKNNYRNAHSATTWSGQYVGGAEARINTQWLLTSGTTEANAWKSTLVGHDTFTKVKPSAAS

The substance “Alexa Fluor 568-conjugated wild-type streptavidin (Molecular Probes) (from UniProt P22629 37-163)” showed a clusters/µm of labeled AP-neuroligin-1 after a two hour incubation of 0.266 clusters/µm.
For “monovalent streptavidin A1D3 conjugated to Alexa Fluor 568 (designed binder)”, the clusters/µm of labeled AP-neuroligin-1 after a two hour incubation was 0.087 clusters/µm.
